Assay results published in article PMC5460017.

What was measured:
[1] = target: Mic60sol (Chaetomium thermophilum Mic60, residues 208–691) (Chaetomium thermophilum); assay: ITC; about 450 μM Mic19 construct in the syringe titrated into about 40 μM Mic60 construct in the cell; 10 °C; 20 mM HEPES/NaOH pH 7.5, 150 mM NaCl; untagged proteins
[2] = target: full-length Mic19 (Chaetomium thermophilum) (Chaetomium thermophilum); assay: SEC; gel filtration of purified Mic19 and its C132S/C143S mutant; the dimers were sensitive to reducing agents in SDS–PAGE
[3] = target: Mic60sol (Chaetomium thermophilum Mic60, residues 208–691) (Chaetomium thermophilum); assay: native gel or EMSA; blue native (BN)-PAGE of purified Mic60 constructs
[4] = target: Mic60sol (Chaetomium thermophilum Mic60, residues 208–691) (Chaetomium thermophilum); assay: AUC; sedimentation velocity (40,000 r.p.m., 3.5 h) and sedimentation equilibrium (9,000 r.p.m.); 20 mM HEPES/NaOH pH 7.3, 150 mM NaCl, 7 °C; 0.02–2 mg ml^-1 Mic60sol
[5] = target: Mic60solΔMito (Chaetomium thermophilum Mic60, residues 208–608) (Chaetomium thermophilum); assay: native gel or EMSA; blue native (BN)-PAGE of purified Mic60 constructs
[6] = target: Mic60solΔMitoΔLBS2 (Chaetomium thermophilum Mic60, residues 208–582) (Chaetomium thermophilum); assay: as above

“full-length Mic19 (Chaetomium thermophilum) (natural protein)” gave a Kd [1] of 170 nM, a stoichiometry N [1] of 0.73 and a percent dimers [2] of 30%. For the same substance, the stoichiometry N [2] was 2.

Substance “C132S/C143S Mic19 mutant (Chaetomium thermophilum) (natural protein)” has a Kd [1] of 3500 nM and a stoichiometry N [1] of 1.

“Mic60sol (Chaetomium thermophilum Mic60, residues 208–691) (domain or fragment)” was tested, and the stoichiometry N [3] was 2 and the stoichiometry N [4] was 2.

“Mic60solΔMito (Chaetomium thermophilum Mic60, residues 208–608) (domain or fragment)” was tested, and the stoichiometry N [5] was 2.

“Mic60solΔMitoΔLBS2 (Chaetomium thermophilum Mic60, residues 208–582) (domain or fragment)” was tested, and the stoichiometry N [6] was 2.
